Data: the RNAGym collection of RNA variant scans (doi:10.7554/elife.80360)

B1: Hammerhead Ribozyme (parent)
chain: ACCGGAUGUGCUUUCCGGUCUGAUGAGUCCGUGAGGACGAAACAG
B2: CPEB3 Ribozyme (parent)
chain: GGGGGCCACAGCAGAAGCGUUCACGUCGCGGCCCCUGUCAGAUUCUGGUGAAUCUGCGAAUUCUGCUGU

Variants of: B1
Test: self-cleavage, relative activity (ratio to wild type); higher = more cleavage; co-transcriptional

Variant | self-cleavage
ACCGAAUGUGCGUUCCGGUCUGAUGAGUCCGUGAGGACGAAACAG [G5A U12G] | 1.31
ACCGGAUGUGAUUUCCGGUCUGAUGAGUCCGGGAGGACGAAACAG [C11A U32G] | 1.01
ACCGCAUGUCCUUUCCGGUCUGAUGAGUCCGUGAGGACGAAACAG [G5C G10C] | 0.441
ACCGGAUGUGCUUUCCGGUCUGAUGCGUCCGUGAGGACGGAACAG [A26C A40G] | 0.285
ACCGGAUGUUCUUUCCGGUCUGAUGAGUCCGUGAGGACGCAACAG [G10U A40C] | 0.548
ACCGGAUGUGCUUUCCGGUCUGAUGAGGCCGUGAGGACGAUACAG [U28G A41U] | 0.338
ACCGGAUGUGCUUUCCGGUCUGAUGAGUCCGGGGGGACGAAACAG [U32G A34G] | 0.65
ACCGGAUGGGCUUUCCGGUCUGAUGAGUCCGUAAGGACGAAACAG [U9G G33A] | 0.988
ACCGGAUGUGCUUUCCGGUCGGAUGAGUCCGUGAGGACUAAACAG [U21G G39U] | 0.37
ACCGGAUGUGCUUUUCGGUCUGAUGAGUCCGUGAGGAUGAAACAG [C15U C38U] | 0.82
ACCGGAUGUGCUUUCCGGUCUGUUGAGUCCGUGAGGUCGAAACAG [A23U A37U] | 0.272

Variants of: B2
Test: as above

Variant | self-cleavage
GGGGGCCACAGCAGAAGCGUUCACGUCGCGGCCCCUGUCAGAUUCUGGUGAAUCUGCGAAUUCUUCUCU [G65U G68C] | 0.852
GGGGGCCACAGCAGAAGCGUUCACGUCGCGGCCCCUGUCAGAUUCUGGUGAAUCUGCGAAUUCUCCCGU [G65C U67C] | 0.905
GGGGGCCACAGCAGAAGCGUUCACGUCGCGGCCCCUGUCAGAUUCUGGUGAAUCUGCGAAUUCUCCGGU [G65C U67G] | 0.905
GGGGGCCACAGCAGAAGCGUUCACGUCGCGGCCCCUGUCAGAUUCUGGUGAAUCUGCGAAUUCUGCUAG [G68A U69G] | 1.06
GGGGGCCACAGCAGAAGCGUUCACGUCGCGGCCCCUGUCAGAUUCUGGUGAAUCUGCGAAUUCUACUUU [G65A G68U] | 0.813
GGGGGCCACAGCAGAAGCGUUCACGUCGCGGCCCCUGUCAGAUUCUGGUGAAUCUGCGAAUUCUACUCU [G65A G68C] | 0.945
GGGGGCCACAGCAGAAGCGUUCACGUCGCGGCCCCUGUCAGAUUCUGGUGAAUCUGCGAAUUCUACUAU [G65A G68A] | 0.941
GGGGGCCACAGCAGAAGCGUUCACGUCGCGGCCCCUGUCAGAUUCUGGUGAAUCUGCGAAUUCUUCCGU [G65U U67C] | 0.78
GGGGGCCACAGCAGAAGCGUUCACGUCGCGGCCCCUGUCAGAUUCUGGUGAAUCUGCGAAUUCUUCGGU [G65U U67G] | 0.92
GGGGGCCACAGCAGAAGCGUUCACGUCGCGGCCCCUGUCAGAUUCUGGUGAAUCUGCGAAUUCUUCAGU [G65U U67A] | 0.848
GGGGGCCACAGCAGAAGCGUUCACGUCGCGGCCCCUGUCAGAUUCUGGUGAAUCUGCGAAUUCGGCUGG [U64G U69G] | 1.02
GGGGGCCACAGCAGAAGCGUUCACGUCGCGGCCCCUGUCAGAUUCUGGUGAAUCUGCGAAUUCGGCUGC [U64G U69C] | 1.05
GGGGGCCACAGCAGAAGCGUUCACGUCGCGGCCCCUGUCAGAUUCUGGUGAAUCUGCGAAUUCUGGUGA [C66G U69A] | 1.02
GGGGGCCACAGCAGAAGCGUUCACGUCGCGGCCCCUGUCAGAUUCUGGUGAAUCUGCGAAUUCUGGUGG [C66G U69G] | 0.923
GGGGGCCACAGCAGAAGCGUUCACGUCGCGGCCCCUGUCAGAUUCUGGUGAAUCUGCGAAUUCUGGUGC [C66G U69C] | 1.01
GGGGGCCACAGCAGAAGCGUUCACGUCGCGGCCCCUGUCAGAUUCUGGUGAAUCUGCGAAUUCUGCUGC [U69C] | 1.06
GGGGGCCACAGCAGAAGCGUUCACGUCGCGGCCCCUGUCAGAUUCUGGUGAAUCUGCGAAUUCUGCUGG [U69G] | 1.06
GGGGGCCACAGCAGAAGCGUUCACGUCGCGGCCCCUGUCAGAUUCUGGUGAAUCUGCGAAUUCUGCUGA [U69A] | 1.02
GGGGGCCACAGCAGAAGCGUUCACGUCGCGGCCCCUGUCAGAUUCUGGUGAAUCUGCGAAUUCUAGUGU [G65A C66G] | 0.797
GGGGGCCACAGCAGAAGCGUUCACGUCGCGGCCCCUGUCAGAUUCUGGUGAAUCUGCGAAUUCUAUUGU [G65A C66U] | 0.77
GGGGGCCACAGCAGAAGCGUUCACGUCGCGGCCCCUGUCAGAUUCUGGUGAAUCUGCGAAUUCUGCUUA [G68U U69A] | 1.01
GGGGGCCACAGCAGAAGCGUUCACGUCGCGGCCCCUGUCAGAUUCUGGUGAAUCUGCGAAUUCUGCUUC [G68U U69C] | 1.1
GGGGGCCACAGCAGAAGCGUUCACGUCGCGGCCCCUGUCAGAUUCUGGUGAAUCUGCGAAUUCUGCUUG [G68U U69G] | 1.02
GGGGGCCACAGCAGAAGCGUUCACGUCGCGGCCCCUGUCAGAUUCUGGUGAAUCUGCGAAUUCUGCAGC [U67A U69C] | 1.07
GGGGGCCACAGCAGAAGCGUUCACGUCGCGGCCCCUGUCAGAUUCUGGUGAAUCUGCGAAUUCUGCAGA [U67A U69A] | 0.996
GGGGGCCACAGCAGAAGCGUUCACGUCGCGGCCCCUGUCAGAUUCUGGUGAAUCUGCGAAUUCUGCAGG [U67A U69G] | 1.04
GGGGGCCACAGCAGAAGCGUUCACGUCGCGGCCCCUGUCAGAUUCUGGUGAAUCUGCGAAUUCUGAUGA [C66A U69A] | 0.969
GGGGGCCACAGCAGAAGCGUUCACGUCGCGGCCCCUGUCAGAUUCUGGUGAAUCUGCGAAUUCUGCCGA [U67C U69A] | 1.07
GGGGGCCACAGCAGAAGCGUUCACGUCGCGGCCCCUGUCAGAUUCUGGUGAAUCUGCGAAUUCUGCCGG [U67C U69G] | 1.11
GGGGGCCACAGCAGAAGCGUUCACGUCGCGGCCCCUGUCAGAUUCUGGUGAAUCUGCGAAUUCUUCUGC [G65U U69C] | 0.97
